Laboratory results published in publication doi:10.1101/2025.03.20.644318, “Functional Spectrum of USP7 Pathogenic Variants in Hao-Fountain Syndrome: Insights into the Enzyme’s Activity, Stability, and Allosteric Modulation” (bioRxiv, 2025).
Positions count from the first letter of the chain named. In names and notes the source's numbering stands.

B1: E345K USP7 catalytic domain (residues 207-560) (domain or fragment, human, UniProt Q93009 207-560, looked up)
chain: SKKHTGYVGLKNQGATCYMNSLLQTLFFTNQLRKAVYMMPTEGDDSSKSVPLALQRVFYELQHSDKPVGTKKLTKSFGWETLDSFMQHDVQELCRVLLDNVENKMKGTCVEGTIPKLFRGKMVSYIQCKEVDYRSDRRKDYYDIQLSIKGKKNIFESFVDYVAVEQLDGDNKYDAGEHGLQEAEKGVKFLTLPPVLHLQLMRFMYDPQTDQNIKINDRFEFPEQLPLDEFLQKTDPKDPANYILHAVLVHSGDNHGGHYVVYLNPKGDGKWCKFDDDVVSRCTKEEAIEHNYGGHDDDLSVRHCTNAYMLVYIRESKLSEVLQAVTDHDIPQQLVERLQEEKRIEAQKRKERQE
notes: USP7 catalytic domain, residues 207-560, with the Hao-Fountain syndrome patient variant E345K; 15N-labelled in the NMR titrations; source: E. coli BL21 (DE3), purified (TALON cobalt resin, thrombin, SEC); M9 minimal media with 15NH4Cl for NMR, LB for enzyme assays; not shown: His6, N-terminal, cleaved
B2: USP7 catalytic domain (residues 207-560), wild type (domain or fragment, human, UniProt Q93009 207-560, looked up)
chain: B1 chain with K139E
modifications: 15N-labeled
notes: also called WT; 15N USP7 (WT); source: E. coli BL21 (DE3), M9 minimal media with 15NH4Cl, purified (TALON cobalt resin, thrombin cleavage, SEC); not shown: His6, N-terminal, cleaved
B3: USP7 catalytic domain (residues 207-560) K420E (domain or fragment, human, UniProt Q93009 207-560, looked up)
chain: B1 chain with K139E, K214E
modifications: 15N-labeled
notes: patient-derived variant; also called 15N USP7 (K420E); K420E USP7 catalytic domain; source: E. coli BL21 (DE3), M9 minimal media with 15NH4Cl, purified (TALON cobalt resin, thrombin cleavage, SEC); not shown: His6, N-terminal, cleaved
B4: USP7 catalytic domain (residues 207-560) V485G (domain or fragment, human, UniProt Q93009 207-560, looked up)
chain: B1 chain with K139E, V279G
modifications: 15N-labeled
notes: patient-derived variant; also called 15N USP7 (V485G); V485G USP7 catalytic domain; source: E. coli BL21 (DE3), M9 minimal media with 15NH4Cl, purified (TALON cobalt resin, thrombin cleavage, SEC); not shown: His6, N-terminal, cleaved
B5: USP7 catalytic domain (residues 207-560) M225I (domain or fragment, human, UniProt Q93009 207-560, looked up)
chain: B1 chain with M19I, K139E
modifications: 15N-labeled
notes: patient-derived variant; also called 15N USP7 (M225I); M225I USP7 catalytic domain; source: E. coli BL21 (DE3), M9 minimal media with 15NH4Cl, purified (TALON cobalt resin, thrombin cleavage, SEC); not shown: His6, N-terminal, cleaved
B6: USP7 catalytic domain (residues 207-560) P273H (domain or fragment, human, UniProt Q93009 207-560, looked up)
chain: B1 chain with P67H, K139E
modifications: 15N-labeled
notes: patient-derived variant; also called 15N USP7 (P273H); P273H USP7 catalytic domain; source: E. coli BL21 (DE3), M9 minimal media with 15NH4Cl, purified (TALON cobalt resin, thrombin cleavage, SEC); not shown: His6, N-terminal, cleaved
B7: USP7 catalytic domain (residues 207-560) Y331H (domain or fragment, human, UniProt Q93009 207-560, looked up)
chain: B1 chain with Y125H, K139E
modifications: 15N-labeled
notes: patient-derived variant; also called 15N USP7 (Y331H); Y331H USP7 catalytic domain; source: E. coli BL21 (DE3), M9 minimal media with 15NH4Cl, purified (TALON cobalt resin, thrombin cleavage, SEC); not shown: His6, N-terminal, cleaved
B8: USP7 catalytic domain (residues 207-560) E345K (domain or fragment, human, UniProt Q93009 207-560, looked up)
chain: B1 chain
modifications: 15N-labeled
notes: patient-derived variant; also called 15N USP7 (E345K); E345K USP7 catalytic domain; source: E. coli BL21 (DE3), M9 minimal media with 15NH4Cl, purified (TALON cobalt resin, thrombin cleavage, SEC); not shown: His6, N-terminal, cleaved
B9: USP7 catalytic domain (residues 207-560) L373F (domain or fragment, human, UniProt Q93009 207-560, looked up)
chain: B1 chain with K139E, L167F
modifications: 15N-labeled
notes: patient-derived variant; also called 15N USP7 (L373F); L373F USP7 catalytic domain; source: E. coli BL21 (DE3), M9 minimal media with 15NH4Cl, purified (TALON cobalt resin, thrombin cleavage, SEC); not shown: His6, N-terminal, cleaved
B10: USP7 catalytic domain (residues 207-560) G392A (domain or fragment, human, UniProt Q93009 207-560, looked up)
chain: B1 chain with K139E, G186A
modifications: 15N-labeled
notes: patient-derived variant; also called 15N USP7 (G392A); G392A USP7 catalytic domain; source: E. coli BL21 (DE3), M9 minimal media with 15NH4Cl, purified (TALON cobalt resin, thrombin cleavage, SEC); not shown: His6, N-terminal, cleaved
B11: USP7 catalytic domain (residues 207-560) G392D (domain or fragment, human, UniProt Q93009 207-560, looked up)
chain: B1 chain with K139E, G186D
modifications: 15N-labeled
notes: patient-derived variant; also called 15N USP7 (G392D); G392D USP7 catalytic domain; source: E. coli BL21 (DE3), M9 minimal media with 15NH4Cl, purified (TALON cobalt resin, thrombin cleavage, SEC); not shown: His6, N-terminal, cleaved
B12: USP7 catalytic domain (residues 207-560) N418S (domain or fragment, human, UniProt Q93009 207-560, looked up)
chain: B1 chain with K139E, N212S
modifications: 15N-labeled
notes: patient-derived variant; also called 15N USP7 (N418S); N418S USP7 catalytic domain; source: E. coli BL21 (DE3), M9 minimal media with 15NH4Cl, purified (TALON cobalt resin, thrombin cleavage, SEC); not shown: His6, N-terminal, cleaved

Target: T1, ubiquitin (UniProt P0CG48 1-76)
T1 construct: neither species nor source of the unlabeled ubiquitin is stated; also called unlabeled ubiquitin
Test: NMR titration; unlabeled ubiquitin added to ~250 uM 15N-labeled USP7 catalytic domain up to 1:4 molar excess of ubiquitin; 2D 1H-15N TROSY, six titration points; KD from fit of total chemical shift changes; 30°C; 20 mM Tris pH 7.5, 100 mM NaCl, 2 mM DTT, 10% D2O
Settings: both partners purified

Binder	Kd [µM]
B1	~600

Target: T2, ubiquitin (UniProt P0CG48 1-76)
T2 construct: also called unlabeled ubiquitin
Test: NMR titration; unlabeled ubiquitin added stepwise to ~250 uM 15N-labeled USP7 catalytic domain up to 1:4 molar excess; 2D 1H-15N TROSY, six titration points, 800 MHz, 30 °C; 20 mM Tris pH 7.5, 100 mM NaCl, 2 mM DTT, 10% D2O; KD from nonlinear fit of total chemical shift changes against ubiquitin concentration
Settings: both partners purified

Binder	Kd [µM]
B2	160 ± 24.2
B3	114 ± 8.8
B4	171 ± 22.6
B5	91.6 ± 5.2
B6	82.5 ± 9.9
B7	26 ± 7.9
B8	621 ± 56.6
B9	108 ± 29.8
B10	77.2 ± 4.7
B11	33.6 ± 6.6
B12	73.4 ± 6.4
